From US20090062190 come the findings set out here.

This data set relates to LITAF + STAT6(B) complex (Homo sapiens). As to the kind of experiment: cell_activity. As to conditions: TNF promoter-luciferase in U2OS cells; inhibited by LITAF shRNA.
LITAF + STAT6(B) complex (Homo sapiens), sequence (chain, as listed by the source, chain 1 of 2): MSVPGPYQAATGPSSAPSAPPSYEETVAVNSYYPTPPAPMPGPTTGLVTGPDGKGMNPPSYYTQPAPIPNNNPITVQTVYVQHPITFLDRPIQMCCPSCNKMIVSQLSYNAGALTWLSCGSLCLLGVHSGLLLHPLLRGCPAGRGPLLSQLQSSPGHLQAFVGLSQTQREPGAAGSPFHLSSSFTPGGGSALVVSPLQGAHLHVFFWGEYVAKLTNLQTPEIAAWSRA
LITAF + STAT6(B) complex (Homo sapiens), sequence (chain, as listed by the source, chain 2 of 2): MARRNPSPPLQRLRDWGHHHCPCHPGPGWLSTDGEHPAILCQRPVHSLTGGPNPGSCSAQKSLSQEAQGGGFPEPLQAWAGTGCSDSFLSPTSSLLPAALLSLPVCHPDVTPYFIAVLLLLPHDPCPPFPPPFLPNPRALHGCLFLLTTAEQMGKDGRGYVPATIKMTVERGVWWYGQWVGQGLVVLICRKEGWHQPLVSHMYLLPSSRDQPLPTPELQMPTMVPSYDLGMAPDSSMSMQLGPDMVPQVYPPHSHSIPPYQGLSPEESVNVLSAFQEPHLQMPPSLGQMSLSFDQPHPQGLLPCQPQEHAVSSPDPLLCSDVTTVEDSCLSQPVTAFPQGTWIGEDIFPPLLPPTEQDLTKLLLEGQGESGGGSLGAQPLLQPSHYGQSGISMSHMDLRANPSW

As to hTNF-alpha promoter DNA probe, the activity (fold vs LITAF alone) was found to be 1.5.
